Experimental findings from patent US20210238260A1 are described below.

The target of the first assay is Antithrombin III (plasma purified human AT-III), in complex with unfractionated full-length heparin (human) (UniProt P01008). Put plainly: inhibition of FIXa by AT-III/UFH, residual activity on Mesyl-D-CHG-Gly-Arg-AMC.
Turning to “BeneFIX Coagulation FIX (T148A), activated (FIXa) (from UniProt P00740 47-191; P00740 227-461) (enzyme)”, the kapp (second-order rate constant for inhibition) is 1.6e+07 M⁻¹ s⁻¹. The substance “Catalyst Biosciences WT FIXa (from UniProt P00740 47-191; P00740 227-461) (enzyme)” returned a kapp (second-order rate constant for inhibition) of 2.4e+07 M⁻¹ s⁻¹. On the same count and under the same terms, the value for “FIXa D85N/D203N/F205T (from UniProt P00740 47-191; P00740 227-461) (enzyme)” was 2.7e+06 M⁻¹ s⁻¹. In turn, “FIXa D104N/K106S/N260S (from UniProt P00740 47-191; P00740 227-461) (enzyme)” yielded a kapp (second-order rate constant for inhibition) of 7e+06 M⁻¹ s⁻¹.

Substance “FIXa D104N/K106S/R318Y/R338E/E410N (from UniProt P00740 47-191; P00740 227-461) (enzyme)” gave a kapp (second-order rate constant for inhibition) of 210000 M⁻¹ s⁻¹. The substance “FIXa D203N/F205T (from UniProt P00740 47-191; P00740 227-461) (enzyme)” showed a kapp (second-order rate constant for inhibition) of 810000 M⁻¹ s⁻¹. “FIXa D203N/F205T/E410N (from UniProt P00740 47-191; P00740 227-461) (enzyme)” showed a kapp (second-order rate constant for inhibition) of 2e+06 M⁻¹ s⁻¹.

For “FIXa D203N/F205T/K228N (from UniProt P00740 47-191; P00740 227-461) (enzyme)”, the kapp (second-order rate constant for inhibition) was found to be 1.1e+06 M⁻¹ s⁻¹. In turn, “FIXa D203N/F205T/R318Y (from UniProt P00740 47-191; P00740 227-461) (enzyme)” came in with a kapp (second-order rate constant for inhibition) of 61000 M⁻¹ s⁻¹.

With “FIXa D203N/F205T/R338A (from UniProt P00740 47-191; P00740 227-461) (enzyme)”, the kapp (second-order rate constant for inhibition) came to 860000 M⁻¹ s⁻¹. Same read-out and setting: the value for “FIXa D203N/F205T/R338E (from UniProt P00740 47-191; P00740 227-461) (enzyme)” was 360000 M⁻¹ s⁻¹. “FIXa D203N/F205T/R338E/R403E (from UniProt P00740 47-191; P00740 227-461) (enzyme)”: the kapp (second-order rate constant for inhibition) was found to be 2000 M⁻¹ s⁻¹. In turn, “FIXa K228N/R318Y (from UniProt P00740 47-191; P00740 227-461) (enzyme)” had a kapp (second-order rate constant for inhibition) of 1.2e+06 M⁻¹ s⁻¹. As to “FIXa K228N/R338E/R403E (from UniProt P00740 47-191; P00740 227-461) (enzyme)”, the kapp (second-order rate constant for inhibition) is 42000 M⁻¹ s⁻¹.

Consider “FIXa K293A/R338A/R403A (from UniProt P00740 47-191; P00740 227-461) (enzyme)”, for which the kapp (second-order rate constant for inhibition) amounted to 47000 M⁻¹ s⁻¹. Consider “FIXa K293A/R403A (from UniProt P00740 47-191; P00740 227-461) (enzyme)”, for which the kapp (second-order rate constant for inhibition) was determined as 81000 M⁻¹ s⁻¹. The substance “FIXa K293E (from UniProt P00740 47-191; P00740 227-461) (enzyme)” came in with a kapp (second-order rate constant for inhibition) of 1.2e+06 M⁻¹ s⁻¹. The substance “FIXa K293E/R338E/R403E (from UniProt P00740 47-191; P00740 227-461) (enzyme)” came in with a kapp (second-order rate constant for inhibition) of 31000 M⁻¹ s⁻¹. For “FIXa N260S (from UniProt P00740 47-191; P00740 227-461) (enzyme)”, the kapp (second-order rate constant for inhibition) amounted to 1.1e+06 M⁻¹ s⁻¹. “FIXa R312Y (from UniProt P00740 47-191; P00740 227-461) (enzyme)” came in with a kapp (second-order rate constant for inhibition) of 230000 M⁻¹ s⁻¹. Regarding “FIXa R318A (from UniProt P00740 47-191; P00740 227-461) (enzyme)”, the kapp (second-order rate constant for inhibition) worked out at 690000 M⁻¹ s⁻¹. On to “FIXa R318A/R403A (from UniProt P00740 47-191; P00740 227-461) (enzyme)”, for which the kapp (second-order rate constant for inhibition) stood at 17000 M⁻¹ s⁻¹.

The substance “FIXa R318E (from UniProt P00740 47-191; P00740 227-461) (enzyme)” showed a kapp (second-order rate constant for inhibition) of 16000 M⁻¹ s⁻¹.

The substance “FIXa R318Y (from UniProt P00740 47-191; P00740 227-461) (enzyme)” had a kapp (second-order rate constant for inhibition) of 640000 M⁻¹ s⁻¹. Regarding “FIXa R318Y/E410N (from UniProt P00740 47-191; P00740 227-461) (enzyme)”, the kapp (second-order rate constant for inhibition) came to 1.1e+06 M⁻¹ s⁻¹.

As to “FIXa R318Y/R338E/E410N (from UniProt P00740 47-191; P00740 227-461) (enzyme)”, the kapp (second-order rate constant for inhibition) came out at 280000 M⁻¹ s⁻¹. “FIXa R318Y/R338E/R403E (from UniProt P00740 47-191; P00740 227-461) (enzyme)” displayed a kapp (second-order rate constant for inhibition) of 1200 M⁻¹ s⁻¹.

The substance “FIXa R338A/R403A (from UniProt P00740 47-191; P00740 227-461) (enzyme)” had a kapp (second-order rate constant for inhibition) of 840000 M⁻¹ s⁻¹. As for “FIXa R338E (from UniProt P00740 47-191; P00740 227-461) (enzyme)”, the kapp (second-order rate constant for inhibition) turned out to be 270000 M⁻¹ s⁻¹. Same read-out and setting: the value for “FIXa R338E/E410N (from UniProt P00740 47-191; P00740 227-461) (enzyme)” was 6.3e+06 M⁻¹ s⁻¹; that for “FIXa R338E/R403E (from UniProt P00740 47-191; P00740 227-461) (enzyme)” was 68000 M⁻¹ s⁻¹. “FIXa R338E/R403E/E410N (from UniProt P00740 47-191; P00740 227-461) (enzyme)” showed a kapp (second-order rate constant for inhibition) of 130000 M⁻¹ s⁻¹. The substance “FIXa R403A (from UniProt P00740 47-191; P00740 227-461) (enzyme)” gave a kapp (second-order rate constant for inhibition) of 1.4e+06 M⁻¹ s⁻¹. Still for that read-out and setting: the value for “FIXa R403E (from UniProt P00740 47-191; P00740 227-461) (enzyme)” was 110000 M⁻¹ s⁻¹; that for “FIXa R403E/E410N (from UniProt P00740 47-191; P00740 227-461) (enzyme)” was 4.8e+06 M⁻¹ s⁻¹. On to “FIXa T148A (from UniProt P00740 47-191; P00740 227-461) (enzyme)”, for which the kapp (second-order rate constant for inhibition) is 1.6e+07 M⁻¹ s⁻¹.

“FIXa Y155F/R318Y/R338E/R403E (from UniProt P00740 47-191; P00740 227-461) (enzyme)”: the kapp (second-order rate constant for inhibition) amounted to 1000 M⁻¹ s⁻¹. Regarding “FIXa Y155F/R338E/R403E/E410N (from UniProt P00740 47-191; P00740 227-461) (enzyme)”, the kapp (second-order rate constant for inhibition) was found to be 32000 M⁻¹ s⁻¹.

For another assay, the target named is plasma purified human AT-III (antithrombin III) in complex with unfractionated heparin (human) (UniProt P01008). In words: residual FIXa activity on Mesyl-D-CHG-Gly-Arg-AMC after timed incubation with AT-III/UFH (0-500 nM AT-III, 1 uM UFH); kapp from K0.5.
Consider “FIXa-D104N/K106S/K228N/K247N/N249S/R318Y/R338E/R403E/E410N (from UniProt P00740 47-191; P00740 227-461) (enzyme)”, for which the kapp (apparent second-order rate constant for inhibition) was found to be 680 M⁻¹ s⁻¹.

In the case of “FIXa-D104N/K106S/K247N/N249S/N260S (from UniProt P00740 47-191; P00740 227-461) (enzyme)”, the kapp (apparent second-order rate constant for inhibition) was found to be 1.7e+06 M⁻¹ s⁻¹. “FIXa-D104N/K106S/N260S/R318Y/R338E/R403E/E410N (from UniProt P00740 47-191; P00740 227-461) (enzyme)”: the kapp (apparent second-order rate constant for inhibition) came out at 2100 M⁻¹ s⁻¹. On to “FIXa-D104N/K106S/R318Y/R338E/T343R/R403E/E410N (from UniProt P00740 47-191; P00740 227-461) (enzyme)”, for which the kapp (apparent second-order rate constant for inhibition) was 9100 M⁻¹ s⁻¹. Turning to “FIXa-K228N/K247N/N249S/R318Y/R338E/R403E/E410N (from UniProt P00740 47-191; P00740 227-461) (enzyme)”, the kapp (apparent second-order rate constant for inhibition) is 1100 M⁻¹ s⁻¹. On to “FIXa-K247N/N249S/N260S/R318Y/R338E/R403E/E410N (from UniProt P00740 47-191; P00740 227-461) (enzyme)”, for which the kapp (apparent second-order rate constant for inhibition) worked out at 1300 M⁻¹ s⁻¹. On the same count and under the same terms, the value for “FIXa-K247N/N249S/R318Y/R338E/R403E (from UniProt P00740 47-191; P00740 227-461) (enzyme)” was 310 M⁻¹ s⁻¹. Regarding “FIXa-K247N/N249S/R318Y/R403E/E410N (from UniProt P00740 47-191; P00740 227-461) (enzyme)”, the kapp (apparent second-order rate constant for inhibition) was determined as 2700 M⁻¹ s⁻¹.

Turning to “FIXa-K247N/N249S/R338E/R403E/E410N (from UniProt P00740 47-191; P00740 227-461) (enzyme)”, the kapp (apparent second-order rate constant for inhibition) is 21000 M⁻¹ s⁻¹. Consider “FIXa-N260S/R318Y/R338E/R403E/E410N (from UniProt P00740 47-191; P00740 227-461) (enzyme)”, for which the kapp (apparent second-order rate constant for inhibition) stood at 4400 M⁻¹ s⁻¹. With “FIXa-R318Y/R338E/E410S (from UniProt P00740 47-191; P00740 227-461) (enzyme)”, the kapp (apparent second-order rate constant for inhibition) was determined as 720000 M⁻¹ s⁻¹. With “FIXa-R318Y/R338E/N346D/R403E/E410N (from UniProt P00740 47-191; P00740 227-461) (enzyme)”, the kapp (apparent second-order rate constant for inhibition) came out at 1100 M⁻¹ s⁻¹. On the same count and under the same terms, the value for “FIXa-R318Y/R338E/N346Y/R403E/E410N (from UniProt P00740 47-191; P00740 227-461) (enzyme)” was 2800 M⁻¹ s⁻¹. With “FIXa-R318Y/R338E/R403E/E410N/T412A (from UniProt P00740 47-191; P00740 227-461) (enzyme)”, the kapp (apparent second-order rate constant for inhibition) worked out at 3800 M⁻¹ s⁻¹.

Turning to “FIXa-R318Y/R338E/R403E/E410N/T412V (from UniProt P00740 47-191; P00740 227-461) (enzyme)”, the kapp (apparent second-order rate constant for inhibition) was found to be 2900 M⁻¹ s⁻¹.

For “FIXa-R318Y/R338E/R403E/T412A (from UniProt P00740 47-191; P00740 227-461) (enzyme)”, the kapp (apparent second-order rate constant for inhibition) worked out at 1600 M⁻¹ s⁻¹.

For the substance “FIXa-R318Y/R338E/T343R/N346D/R403E/E410N (from UniProt P00740 47-191; P00740 227-461) (enzyme)”, the kapp (apparent second-order rate constant for inhibition) was 5100 M⁻¹ s⁻¹. For “FIXa-R318Y/R338E/T343R/N346Y/R403E/E410N (from UniProt P00740 47-191; P00740 227-461) (enzyme)”, the kapp (apparent second-order rate constant for inhibition) amounted to 11000 M⁻¹ s⁻¹.
